The results in this text go back to publication PMC9599700, “Biochemical and Structural Characterization of Chi-Class Glutathione Transferases: A Snapshot on the Glutathione Transferase Encoded by sll0067 Gene in the Cyanobacterium Synechocystis sp. Strain PCC 6803” (Biomolecules, 2022).

Numbering of substitutions follows the chain as printed. Numbers in names are those of the source.

Data set [1] concerns the target T1, SynGSTC1 (Sll0067) (Synechocystis sp. PCC 6803, UniProt Q55139).
T1 construct: gene gst; Ni-NTA and size exclusion; about 180 residues; two-fold dimer in crystal
T1 sequence (Q55139 1-184): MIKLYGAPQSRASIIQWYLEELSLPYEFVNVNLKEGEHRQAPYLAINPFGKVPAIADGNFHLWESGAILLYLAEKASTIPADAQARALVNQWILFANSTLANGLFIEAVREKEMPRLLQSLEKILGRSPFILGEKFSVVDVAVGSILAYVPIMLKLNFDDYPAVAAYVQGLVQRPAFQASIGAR
In words: GSH-conjugation assay, spectrophotometric […] nm, Michaelis-Menten fit. Format: biochemical. The conditions noted are these: fixed saturating GSH; 30 mM Tris-HCl pH 8.0, 1 mM EDTA; 25 °C.

Data set [2] addresses glutathione transferase chi1 from Synechocystis sp. PCC 6803 (SynGSTC1), wild-type (Synechocystis sp. PCC 6803). In words: crystal structure; co-crystallised with 10 mM glutathione and 1 mM TCEP, microbatch under oil at 4 °C; space group P4(3)2(1)2, two polypeptide chains in the asymmetric unit.
Data set [3] has as its target T2, SynGSTC1 (Sll0067) (Synechocystis sp. PCC 6803, UniProt Q55139, S10C).
T2 construct: gene gst; Ni-NTA and size exclusion; about 180 residues; two-fold dimer in crystal
T2 sequence (Q55139 1-184 S10C): T1 sequence (Q55139 1-184) with S10C
In words: NADPH/glutathione reductase-coupled thiol-transferase assay, […] nm. Format: biochemical. The conditions noted are these: fixed saturating GSH; 200 µM NADPH; 30 mM Tris-HCl pH 8.0; 25 °C; read-out: HED.

Data set [4] has as its target T1, SynGSTC1 (Sll0067). In words: GSH-conjugation assay, spectrophotometric […] nm, Michaelis-Menten fit. The class given is biochemical. Conditions: fixed saturating GSH; 100 mM phosphate pH 6.5; 25 °C.
Substrate in data set [5]: CCCC(=O)Oc1ccc([N+](=O)[O-])cc1
As to the kind of experiment: purified protein. Format: biochemical, Synechocystis sp. PCC 6803. Conditions: fixed saturating GSH, 30 mM Tris-HCl pH 8.0, 1 mM EDTA, 25 °C.

Substrate in data set [6]: S=C=NCCc1ccccc1
As to the kind of experiment: purified protein. The conditions noted are these: fixed saturating GSH, 100 mM phosphate pH 6.5, 25 °C. Format: biochemical, Synechocystis sp. PCC 6803.

Substrate in data set [7]: CC(C)(OO)c1ccccc1
In words: purified protein. The conditions noted are these: fixed GSH, 200 µM NADPH, 30 mM Tris-HCl pH 8.0, 25 °C.

Consider `O=[N+]([O-])c1ccc(Cl)c([N+](=O)[O-])c1` [1-chloro-2,4-dinitrobenzene], for which the Km in data set [1] is 3790 ± 772 µM.

“glutathione transferase chi1 from Synechocystis sp. PCC 6803 (SynGSTC1), wild-type (enzyme)” had a stoichiometry N in data set [2] of 2.

As for `OCCSSCCO` [2-hydroxyethyl disulfide], the Km in data set [3] worked out at 3.3 ± 0.4 µM.

On to `S=C=NCc1ccccc1` [benzyl-isothiocyanate], for which the Km in data set [4] amounted to 82 ± 10 µM.

B1: SynGSTC1 (Sll0067) (Synechocystis sp. PCC 6803 substr. Kazusa) (protein)
chain: T1 sequence (Q55139 1-184)
notes: Ni-NTA and size exclusion; about 180 residues; two-fold dimer in crystal
For B1, in data set [5], the Km was determined as 162.5 ± 18.3 µM and the kcat came to 0.48 ± 0.2 s⁻¹. For the same molecule, in data set [6], the Km stood at 33.8 ± 2.5 µM, the kcat came to 12.6 ± 0.2 s⁻¹ and the kcat/Km was 373000 ± 6000 M⁻¹ s⁻¹. In data set [7], the Km is reported as 1508.0 ± 191.0 µM and the kcat was found to be 0.91 ± 0.06 s⁻¹.

B2: SynGSTC1 (Sll0067) (Synechocystis sp. PCC 6803 substr. Kazusa; S10C) (protein)
chain: T1 sequence (Q55139 1-184) with S10C
notes: as for B1
In the case of B2, in data set [6], the Km was 33.0 ± 3.0 µM, the kcat worked out at 1.19 ± 0.02 s⁻¹ and the kcat/Km is 36000 ± 600 M⁻¹ s⁻¹.

B3: SynGSTC1 (Sll0067) (Synechocystis sp. PCC 6803 substr. Kazusa; R11A) (protein)
chain: T1 sequence (Q55139 1-184) with R11A
notes: as for B1
B3: in data set [6], the Km worked out at 108.4 ± 6.0 µM, the turnover number (kcat) was 0.17 ± 0.003 s⁻¹ and the specificity constant (kcat/Km) is 1530 ± 20 M⁻¹ s⁻¹.

B4: SynGSTC1 (Sll0067) (Synechocystis sp. PCC 6803 substr. Kazusa; S10A) (protein)
chain: T1 sequence (Q55139 1-184) with S10A
notes: as for B1
In the case of B4, in data set [6], the Km was 89.7 ± 6.4 µM, the turnover number (kcat) stood at 2.6 ± 0.05 s⁻¹ and the specificity constant (kcat/Km) was 28900 ± 600 M⁻¹ s⁻¹.

B5: SynGSTC1 (Sll0067) (Synechocystis sp. PCC 6803 substr. Kazusa; S10T) (protein)
chain: T1 sequence (Q55139 1-184) with S10T
notes: as for B1
Turning to B5, in data set [6], the Km came to 33.6 ± 2.6 µM, the catalytic constant (kcat) was determined as 7.2 ± 0.1 s⁻¹ and the specificity constant (kcat/Km) was determined as 214000 ± 4000 M⁻¹ s⁻¹.
